In patent US20030096760A1 (GlaxoSmithKline, published 2003):
[ ]: non-standard residue; d: D form.

Molecular target: T1, DET1-DET2-spacer-ek-src SH2 (human src SH2 domain fusion protein) (human)
T1 construct: In the assay it was captured on Protein-G Sepharose through MAB178.1; also called cloned human Src SH2 domain
T1 chain: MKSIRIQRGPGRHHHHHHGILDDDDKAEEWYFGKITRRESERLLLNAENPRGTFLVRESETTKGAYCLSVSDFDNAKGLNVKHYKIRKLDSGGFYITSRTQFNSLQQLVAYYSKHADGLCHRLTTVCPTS
Test: ELISA-based filter plate competition assay; SH2 fusion captured by MAB178.1, displacement of 0.1 uM biotinylated pY peptide (SEQ ID NO: 13)

B1: (S)-alpha-(acetylamino)-1,3-dihydro-3-hydroxy-1-oxo-5-isobenzofuranpropanamido-glutamate-glutamate-isoleucine-glutamate-amine (peptide)
peptide: Ac-[(S)‑2‑amino‑3‑(1,3-dihydro-3-hydroxy-1-oxo-isobenzofuran-5-yl)propanoic acid]EEIE-NH2
notes: Synthetic modified pentapeptide; also called Compound 1
Work on B1 yielded an IC50 of 250 nM.
